Biological target: S. Typhimurium CueP C172S mutant (S. Typhimurium)
Assay: SEC

S. Typhimurium CueP C172S mutant (natural protein)
stoichiometry N: 4

From article PMC3935622
